Test results published in patent publication US10555963B2, “Klotho protein and related compounds for the treatment and diagnosis of cancer” (TEL HASHOMER MEDICAL RESEARCH INFRASTRUCTURE AND SERVICES …, priority 2007, dated 2020).

Tests used:
[1] = system: EGF pathway in MCF-7, MDA-MB-231 and HEK293 cells; experiment: EGF pathway (ERK1/2) after klotho protein over-expression; type: cell-based, human; details: starved 48 hours
Procedure: The effects of over-expression of klotho protein on the insulin-stimulated pathway were also examined. The EGF pathway, which plays an important role in the pathogenesis of breast cancer, is not modulated by klotho protein in either L6 or H411E cells (Kurosu et al., 2005). In order to evaluate the effects of klotho protein on this pathway in MCF-7, MDA-MB-231 and HEK293 breast cancer cells, these cells were transfected with either pcDNA3-HA-KL or an empty vector, starved for 48 hours, treated with EGF, and analyzed for the expression and activity of the ERK1/2, which are downstream targets of the EGF pathway.

[2] = system: IGF-1 pathway in Panc1 cells; experiment: IGF-1 pathway in Panc1 cells after klotho protein over-expression (immunoblot); type: cell-based, human; details: IGF-1 12.5 nM, 15 min
Procedure: For pancreatic cells, protein extraction and Western blotting was performed as described (Wolf et al., 2008).
Panc1 cells were transfected with either klotho protein-HA expression plasmid (KL-HA) or a control vector (pcDNA3). After 24 hrs, cells were serum starved for 48 hr and treated with IGF-1 (12.5 nM, 15 min). Following treatment, cells were harvested and proteins were resolved and immunoblotted using antibodies directed against phosphorylated (p) and total (t) IGF-1R, p- and t-AKT, p- and t-ERK1/2.

Panc1 cells = experiment: In vivo Panc1 tumors in athymic nude mice treated with soluble klotho protein; details: 200 ng/day, 500 ng/day daily intra-peritoneal, up to 4 weeks
Procedure: Panc1 cells were harvested, washed twice with sterile PBS, counted and resuspended in Matrigel (BD Biosciences). Six-week-old female athymic nude mice were injected subcutaneously in both flanks with cells at a density of 0.5×10^6 cells/100 μl. The mice were treated with daily intra-peritoneal injections of either soluble klotho protein (prepared as described above): 200 ng/day, 500 ng/day, or vehicle control (saline). Five mice were used in each group. Tumor size was measured weekly with a linear caliper for up to 4 weeks, and tumor volume was estimated using the equation V=(a×b^2)×0.5236, where “a” is the larger dimension and “b” the perpendicular diameter.

[3] = system: human embryonic kidney (HEK) 293 cells; experiment: Colony formation assay after transfection with klotho protein expression vector; type: cell-based; details: transfected pcDNA3-HA-KL vs empty vector
Procedure: (§1) Two days following transfection with the indicated plasmids, G418 (750 μg/ml) was added to the culture media; and at day 14, the cells were stained using gentian violet. Untransfected cells were treated similarly, and all died within the 2 weeks of culture in the selection media. Quantification of the results was performed using AlphaImager 2000 (Alpha Innotech, CA).
(§2) The effect of klotho protein on growth of breast cancer cells was first assessed using colony formation assays. MCF-7, MDA-MB-231 and the non-cancerous human embryonic kidney (HEK) 293 cells were transfected with either a HA-tagged klotho protein expression vector (pcDNA3-HI-A-KL) or an empty vector (pcDNA3). Transfected cells were cultured in media containing G418 for two weeks and stained to determine the number of surviving colonies.

MCF-7 cells = experiment: IGF-1-induced MCF-7 proliferation after klotho protein transfection; type: cell-based, human; details: HA-KL-transfected cells, 0.5% serum, IGF-1 24-96 hr; control pcDNA3 cells up to 40%
Procedure: (§3) The medium was aspirated, and the cells were dissolved by dimethyl sulfoxide (DMSO).
Klotho protein is known to inhibit activation of the IGF-1 pathway in L6 myoblasts cells and rat hepatoma H4IIE cells (Kurosu et al., 2005). This pathway plays an important role in breast cancer tumorigenesis, and IGF-1 induces MCF-7 cell proliferation (Geier et al., 1995; Yee, 2006). In order to test the ability of klotho protein to modulate IGF-1-induced proliferation and survival, MCF-7 cells were transiently transfected with either pcDNA3 or pcDNA3-HA-KL, and grown in 0.5% serum with either IGF-1 or a control vehicle for 24-96 hr.

[4] = system: Colo357, MiaPaCa2, and Panc1; experiment: Colony formation assay of pancreatic carcinoma cell lines transfected with klotho protein vector; type: cell-based, human; details: pcDNA3-HA-KL vs empty vector; G418 two weeks
Procedure: Two days following transfection with the indicated plasmids, G418 (900 μg/ml for Panc1, 1000 μg/ml for MiaPaCa2 and 750 μg/ml for Colo357, HEK-293 and BON1) was added to the culture media. At day 14, cells were stained using crystal violet (Sigma-Aldrich) and quantitated as described (Wolf et al., 2008).
For the colony formation assay, pancreatic carcinoma cell lines Colo357, MiaPaCa2, and Panc1 were transfected with either a HA-tagged klotho protein expression vector (pcDNA3-HA-KL) or an empty vector (pcDNA3). Transfected cells were cultured in media containing G418 for two weeks. Colonies were stained with crystal violet and photographed.

[5] = system: IGF-1 pathway in MDA-MB-231 cells; experiment: IGF-1 pathway activation (Western blotting) after klotho protein over-expression; type: cell-based, human; details: IGF-1 12.5 nM, 15 min, data not shown
Procedure: (§4) For breast cells, cells were harvested and lysed for total protein extraction in RIPA buffer (50 mM Tris-Cl pH 7.4, 150 mM NaCl, 1% NP-40, 0.25% Na-deoxycholate, 1 mM EDTA, 1 mM NaF) together with a protease inhibitor cocktail (Sigma). 50 μg protein extracts were loaded on 10% polyacrylamide gels, separated electrophoretically and blotted from the gel onto nitrocellulose membrane (Schleicher & Schuell Bioscience GmbH, Dassel, D E). The membranes were then immunoblotted with the indicated antibodies.
(§5) MDA-MB-231 cells, which express lower levels of these receptors, were also examined. HEK 293 cells, whose growth is not dependent on the IGF-1 pathway (El-Shewy et al., 2007) and is not inhibited by klotho protein, served as control.
(§6) In further experiments, MCF-7, MDA-MB-231 or HEK-293 cells were transfected with either pcDNA3-HA-KL or empty vector and treated with IGF-1 (12.5 nM, 15 min).

[6] = system: IGF-1 pathway in HEK 293 cells; experiment: as above; type: cell-based, human; details: IGF-1 12.5 nM, 15 min
Procedure: as §4, §5, §6

[7] = system: MCF-7 and MDA-MB-231 clones; experiment: MTT proliferation assay of clones stably expressing klotho protein; type: cell-based, human; details: stable klotho protein-expressing clones vs pcDNA3 controls; 24-72 h
Procedure: as §3
In order to assess the long-term effects of klotho protein expression, MCF-7 and MDA-MB-231 clones, which stably expressed either pcDNA3 or pcDNA3-HA-KL, were generated. Proliferation was evaluated by 3-(4,5-dimethylthiazol-2-yl)-2,5-diphenyltetrazolium bromide (MTT) assay after seeding for 24-72 h.

MDA-MB-231 = experiment: Colony formation assay after transfection with klotho protein expression vector; type: cell-based, human; details: transfected pcDNA3-HA-KL vs empty vector; G418 two weeks; p<0.0005
Procedure: as §1, §2

MCF-7 = experiment: as above; type: cell-based, human; details: transfected pcDNA3-HA-KL vs empty vector; G418 two weeks; p<0.0005
Procedure: as §1, §2

[8] = system: insulin pathway in MCF-7 cells; experiment: Insulin pathway activation after klotho protein over-expression; type: cell-based, human; details: insulin stimulation

B1: klotho protein: full length mouse Klotho (SEQ ID NO. 3) over-expressed in cells from HA-tagged expression vector pcDNA3-HA-KL (protein)
chain: MLARAPPRRPPRLVLLRLLLLHLLLLALRARCLSAEPGQGAQTWARFARAPAPEAAGLLHDTFPDGFLWAVGSAAYQTEGGWRQHGKGASIWDTFTHHSGAAPSDSPIVVAPSGAPSPPLSSTGDVASDSYNNVYRDTEGLRELGVTHYRFSISWARVLPNGTAGTPNREGLRYYRRLLERLRELGVQPVVTLYHWDLPQRLQDTYGGWANRALADHFRDYAELCFRHFGGQVKYWITIDNPYVVAWHGYATGRLAPGVRGSSRLGYLVAHNLLLAHAKVWHLYNTSFRPTQGGRVSIALSSHWINPRRMTDYNIRECQKSLDFVLGWFAKPIFIDGDYPESMKNNLSSLLPDFTESEKRLIRGTADFFALSFGPTLSFQLLDPNMKFRQLESPNLRQLLSWIDLEYNHPPIFIVENGWFVSGTTKRDDAKYMYYLKKFIMETLKAIRLDGVDVIGYTAWSLMDGFEWHRGYSIRRGLFYVDFLSQDKELLPKSSALFYQKLIEDNGFPPLPENQPLEGTFPCDFAWGVVDNYVQVDTTLSQFTDPNVYLWDVHHSKRLIKVDGVVAKKRKPYCVDFSAIRPQITLLREMRVTHFRFSLDWALILPLGNQTQVNHTVLHFYRCMISELVHANITPVVALWQPAAPHQGLPHALAKHGAWENPHTALAFADYANLCFKELGHWVNLWITMNEPNTRNMTYRAGHHLLRAHALAWHLYDDKFRAAQKGKISIALQADWIEPACPFSQNDKEVAERVLEFDIGWLAEPIFGSGDYPRVMRDWLNQKNNFLLPYFTEDEKKLVRGSFDFLAVSHYTTILVDWEKEDPMKYNDYLEVQEMTDITWLNSPSQVAVVPWGLRKVLNWLRFKYGDLPMYVTANGIDDDPHAEQDSLRIYYIKNYVNEALKAYVLDDINLCGYFAYSLSDRSAPKSGFYRYAANQFEPKPSMKHYRRIIDSNGFLGSGTLGRFCPEEYTVCTECGFFQTRKSLLVFISFLVFTFIISLALIFHYSKKGQRSYK
modifications: HA tag
With B1 the “expression and phosphorylation of ERK1/2 after EGF” value [1] was “affected neither the expression nor phosphorylation”, the “phosphorylation of IGF-1R, AKT1 and ERK1/2” value [2] was “reduced phosphorylation” and the “tumor growth (tumor size)” value (Panc1 cells) was “significant dose-response arrest of tumor growth”. The “effect on HEK 293 growth (colony assay)” value [3] was “no effect”, the “increase of cell proliferation by IGF-1” value (MCF-7 cells) was 25% and the “number and size of surviving colonies” value [4] was “significantly reduced”. The “effect on IGF-1 pathway phosphorylation” value [5] was “Smaller effects”, the “effect on IGF-1 pathway phosphorylation” value [6] was “only minor effects” and the “proliferation slower than controls (MTT assay)” value [7] was “up to 6 fold”. The “reduction of number and size of surviving colonies” value (MDA-MB-231) was 72%, the “reduction of number and size of surviving colonies” value (MCF-7) was 84% and the “activation of the insulin pathway” value [8] was “inhibited”.
